Tests used:
Experiment in all cases: SPR; Biacore T200; anti-His antibody amine-coupled on a CM5 chip captures the His-tagged receptor (100 nM FcγRIa, 300 nM FcγRIIa_R131 and FcγRIIb, 200 nM FcγRIIIa_V158, 200 nM FcRn); IgG1 glycovariant, Fc-fragment or pre-incubated IgG1 complex injected as analyte (FcγRI 100 nM, FcγRIIa/b 300 nM, FcγRIIIa 200 nM); non-kinetic comparison, WT set as 100%; HBS-N (10 mM HEPES, pH 7.4, 150 mM NaCl)
[1] = biological target: His-tagged FcγRIIIa_V158 (human)
[2] = biological target: His-tagged FcγRIIa_R131 (human)
[3] = biological target: His-tagged FcγRIIb (human) (UniProt P31994)
His-tagged FcγRI (human) = His-tagged FcγRI (human) (UniProt P12314)
Chain of UniProt P12314 (P12314 16-374): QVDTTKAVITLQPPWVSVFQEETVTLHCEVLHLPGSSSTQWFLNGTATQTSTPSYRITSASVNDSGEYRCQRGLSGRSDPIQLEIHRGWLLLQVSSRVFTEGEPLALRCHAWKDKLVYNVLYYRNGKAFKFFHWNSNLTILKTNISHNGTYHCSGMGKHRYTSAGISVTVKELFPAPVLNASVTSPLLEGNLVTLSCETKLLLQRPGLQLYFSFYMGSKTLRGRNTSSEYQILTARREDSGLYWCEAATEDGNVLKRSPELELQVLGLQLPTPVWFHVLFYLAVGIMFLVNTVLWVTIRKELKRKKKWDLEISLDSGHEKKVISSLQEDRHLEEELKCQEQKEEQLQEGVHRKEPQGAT

Chain of UniProt P31994 (P31994 43-310): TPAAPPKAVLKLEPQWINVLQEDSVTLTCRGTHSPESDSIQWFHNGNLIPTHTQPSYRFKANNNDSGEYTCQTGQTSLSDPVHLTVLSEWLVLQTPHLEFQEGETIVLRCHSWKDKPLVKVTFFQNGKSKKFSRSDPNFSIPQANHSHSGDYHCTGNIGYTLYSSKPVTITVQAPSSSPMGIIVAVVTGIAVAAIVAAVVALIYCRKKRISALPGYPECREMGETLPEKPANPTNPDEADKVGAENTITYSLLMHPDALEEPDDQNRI

percent binding (WT = 100%) [1] [%] | percent binding (WT = 100%) [2] [%] | percent binding (WT = 100%) [3] [%] | percent decrease in binding against WT (His-tagged FcγRI (human)) [%] | Substance
75 |  |  |  | G0 IgG1 glycovariant (antibody)
70 | 45 | 65 |  | M3 IgG1 glycovariant (antibody)
 |  |  | 40 | deglycosylated IgG1 glycovariant (antibody)

Second part, the substance before the results:

Substance | percent binding (WT = 100%) [1] [%] | percent binding (WT = 100%) [2] [%] | percent binding (WT = 100%) [3] [%] | percent decrease in binding against WT (His-tagged FcγRI (human)) [%]
G1 IgG1 glycovariant (antibody) | 75 |  |  | 
G1+1SA IgG1 glycovariant (antibody) | 75 |  |  | 

Source: PMC4676693
